Measured values: patent publication US20140328858, “LIN28-MEDIATED CONTROL OF LET-7 BIOGENESIS” (Children's Medical Center Corporation, published 2014)
Like-named read-outs stand apart in the source and are kept apart here.

How the values were obtained:
[1] = system: immunopurified Flag-Lin28
[2] = target: T1, Lin28B (Homo sapiens, UniProt Q6ZN17 Q6ZN17:2-250); assay: EMSA; 50 mM Tris pH 7.5, 100 mM NaCl, 10 mM bME, RT, 0.5 nM RNA; Kd fitted (Hill) but value not in text; conditions: tags: 6xHis N-terminal, E. coli (pET21); label: 5'-end label (EMSA); hairpin
T1 sequence: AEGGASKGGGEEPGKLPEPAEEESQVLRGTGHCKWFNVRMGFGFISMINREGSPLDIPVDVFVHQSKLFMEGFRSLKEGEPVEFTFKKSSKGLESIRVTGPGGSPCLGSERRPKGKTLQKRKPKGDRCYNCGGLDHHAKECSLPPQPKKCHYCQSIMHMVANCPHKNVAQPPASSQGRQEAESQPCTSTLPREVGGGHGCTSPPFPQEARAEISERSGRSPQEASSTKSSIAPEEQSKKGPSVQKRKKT
Procedure: (§1) EMSA was performed with pre-let-7g to analyze the relative binding affinities of the two recombinant proteins. Lin28A and Lin28B have apparent Kds of approximately 0.6 nM and 0.5 nM, respectively (FIG. 7B). Both these estimated Kds are much lower than a previously reported for recombinant mouse Lin28A. This difference is likely due to the omission here of nonspecific yeast tRNA competitor used previously in the binding buffer. Piskounova et al., 2008. […] Collectively, these assays reveal that both Lin28 proteins can directly bind to let-7 precursors with high-affinity in vitro.
(§2) Transformed BL21-CodonPlus® Competent bacteria (Stratagene) were grown to an OD600 nm of 0.4-0.6. Expression was induced 100 μM IPTG for 2-3 hours. Cell pellets were resuspended in cold lysis buffer [20 mM imidazole pH 8.0 in PBS, 0.1% Phenylmethyl sulfonyl fluoride (PMSF)] and sonicated. Cleared lysates were incubated with Ni-NTA beads and after 90 min incubation at 4° C. the beads were washed with 80-column-vol. wash buffer [10 mM Tris (pH 7.8), 50 mM imidazole pH 8.0, 500 mM NaCl, 0.1% PMSF). […] Band intensities of scanned gels were quantified using ImageJ software and used to calculate percentage of probe bound. […]

[3] = target: T2, Lin28A (Homo sapiens, UniProt Q9H9Z2 Q9H9Z2:2-209); assay: as above; conditions: tags: 6xHis N-terminal, E. coli (pET21); label: 5'-end label (EMSA); hairpin
T2 sequence: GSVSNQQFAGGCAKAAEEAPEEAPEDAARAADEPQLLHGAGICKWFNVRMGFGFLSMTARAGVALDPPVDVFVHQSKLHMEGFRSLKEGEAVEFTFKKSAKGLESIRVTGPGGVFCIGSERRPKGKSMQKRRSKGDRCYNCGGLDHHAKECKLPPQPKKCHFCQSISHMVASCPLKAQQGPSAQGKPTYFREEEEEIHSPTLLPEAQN
Procedure: as §1, §2

[4] = target: immunopurified Flag-Lin28; remark: listed apart in the source

Molecule: mZcchc11 ΔC2H2 (N-terminal truncation lacking the C2H2 zinc finger)
- in vitro uridylation of synthetic pre-let-7 (incorporation of radiolabeled UTP) [1]: Loss of the N-terminal C2H2 domain still allowed for basal activity, but this mutant could no longer support Lin28-enhanced uridylation against pre-let-7

B1: pre-let-7g (ssRNA)
RNA: GAGGUAGUAGUUUGUACAGUUUGAGGGUCUAUGAUACCACCCGGUACAGGAGAUAACUGUACAGGCCACUGCCUUGC
- binding result [2]: binds
- binding result [3]: binds

B2: mZcchc11 C326/329A (full-length) (protein)
chain: MEEPKTSKNENHEPKKNIICEESKAVKIISNQTLKPRNDKSEIGTSSLNRNSSKKTKQNDICIEKTEAKSCKVNAASVPGPKDLGLVHRDQSHCKMKKLPNSPMKAQKGSSQTKLEKTPSLQTKAEKVPKSPNLPVKAEKAPCTTAEATTEKALNSQRKEENTPTSQMKLQKTPRSPLEPENVPSLLLKENVKQTESQQTGKKLTSSFVSMDKRKSEALQGEKSALENSSLSQKQQTQTDNIADSDDSASGIEDTADDLSKMKSEESNKENSSEMDYLENATVIDESALTPEQRLGLKQAEERLERDHIFRLEKRSPEYTNCRYLAKLALIHIENIQGAHKHIKEKRHKKNILEKQEESELRSLPSPSSAHLAALSVAVVELAKEQGITDDDLRIRQDIVEEMSKVIMTFLPECSLRLYGSSLTKFALKSSDVNIDIKFPPKMNHPDLLIQVLGILKKSALYIDVESDFHAKVPVVVCKDRKSALLCRVSAGNDMACLTTDLLAALGKVEPVFTPLVLAFRYWAKLCYIDSQTDGGIPSYCFALMVMFFLQQRKPPLLPCLLGSWIEGFDPKRMDDFQLKGIVEEKFVKWEYNSSSATEKNLIADENKAKADEPKDDTKKTETDNQSNAAKAKHGKSPLTLEAPNQVPLGQLWLELLKFYTLDFALEEYVICVRIQDILTRENKNWPKRRIAIEDPFSVKRNVARSLNSQLVYEYVVERFRAAYRYFACPQKKGGNKSTMDPKKKEKGKLSSKKPVKSDCSATNCCILGESAEKIHMERGQPAKHDETEFTSQRCIVDNDSLLVNELGLANHGQDSSSLSTASGGSDLKQKSAEKQGDLTPSETSLKKELSQCICIGTPDGAESAGTDCRSNLEMDSSHQIVCNNVSATSCNCKATEVTSDLVDEDNLPSQELYYVFDKFILTSGKPPTIVCSICKKDGHSKNDCPEDFRKIDLKPLPPMTNRFREILDLVCKRCFDELSPPCSEQHNREQILIGLEKFIQKEYDEKARLCLFGSSKNGFGFRDSDLDICMTLEGHENAEKLNCKEIIENLAKILKRHPGLRNILPITTAKVPIVKFEHRRSGLEGDISLYNTLAQHNTRMLATYAAIDPRVQYLGYTMKVFAKRCDIGDASRGSLSSYAYILMVLYFLQQRKPPVIPVLQEIFDGKQIPQRMVDGWNAFFFDKTEELKKRLPSLGKNTESLGELWLGLLRFYTEEFDFKEYVISIRQKKLLTTFEKQWTSKCIAIEDPFDLNHNLGAGVSRKMTNFIMKAFINGRKLFGTPFYPLIGREAEYFFDSRVLTDGELAPNDRCCRVCGKIGHYMKDCPKRKRLKKKDSEEEKEGNEEEKDSRDLLDSRDLRCFICGDAGHVRRECPEVKMARQRNSSVAAAQLVRNLVNAQQVAGSAQQQSDQSIRTRQSSECSDSPSYSPQPQPFPQNSPQPSALPPPPSQPGSQPKLGPPQQGGQPPHQVQMPLYNFPQSPPAHYSPMHSMGLLPMHPLQIPAPSWPIHGPMLHSAPGSTPSNIGLNDPSIIFAQPAARPMAIPSPSHDGHWPRTVAPNSLVNNGAVGNSEPRFRGLNPPIPWEHAPRHFPLVPASWPYGLHQNFMHQGNPRFQPKPFYAQADRCATRRCRERCPHPPRGNVSE
- in vitro uridylation of synthetic pre-let-7 (incorporation of radiolabeled UTP) [4]: this mutant exhibited only basal uridylation activity, as the addition of Lin28 had no impact on its catalysis in vitro
